Results from a protein production outcome set (Wang et al. 2014).

Assay: label from the status in PepcDB records
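Note: failed if final PepcDB status was selected cloned or expressed and not failed if soluble or beyond.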

Sequence | protein production
MLNLFILLLERVGLIILIAYILMNINHFKTMMNEREKRRSQWQLIIIFGCFSMISNFTGIQIRGDEIINGTVYNHLDPDASLANTRVLTIGVSGLIGGPFVALAVAVISGMYRVYIGGADAYIYLISSIFIALISGYFGYKAMRANRYPTIVKGACIGGTTEIIQMLCILLFSDNTEHAWTLVKLIAIPMISINSIGTAIFLSIILSTIKQEEETRAIQTHDVLQLANQTLPYFRSGLNEQSAKKAAEIILNLMRVSAVAITNRKDILTHVGVASDHHVAQKAIITNLSKRAIQSGTLKEAYSSEEIGCNHPGCPLEAAIVVPLRVKNDVVGTLKLYFTNKYDVNYSDKQLATGLAEIFSSQLELGQAETQSALIRDAEIKSLQAQVNPHFFFNAINTISALIRIDSEKARELLLQLSQFFRSNLQGARNNTISLEKELQQVESYLSLEQARYPDRFNVSFDIDRTCYGALVPPFAIQILVENAIKHAFKNRKYNNEIIVKAHKAQTGLVISVSDNGHGIPYEKLDKIGKTSVHSESGTGSALENLNRRLDGLFGYEASLQIHSDHQGTQVSCTIPYHNLEEEKIESNHCR | failed
MKMKLLILAVLPFLTPINMNSQEEKASWVQYVNPLIGTEVWQSGVAVAGHEDPSGYTFPGVTEPFGMTEWTAHTLESKHAGTLHHRVPYWYKHNYISGFMGTHYPSGAVMFDYGAVELMPVVGQLKCRPEERSSSFTHITEKSKPHFYEVMLDDYQVKAQLSATKTSAILQFTYPQSDSAYVVVDAMPSMFTAGAPGYIHIDPVRKEISGKSIQSARGYRETGYFVVRFDKDFDSFGTFNLNNDYPEVIEEKYLFTQKEGKWVNGLKGIYTQDSKGVGHLRSEKIDPVIDFDWDWYKPADDFSFNDYQVTWSGKLKAPSTGEYTLGIQADDGARLYINGELLIDDWKSHSFSYQPTQKKISLEAGKMYDIKLEYYQHEWSSRIKLSWIRPDKKSSTSLLTGNRHLESSTKIGGYIRFKTGKNEVIKAIVGTSFISVEQARINLEREIGAKSMETISAQTEALWNKELSVIDLPGATEQDKIVFYTALYHSFLLPRSLSEDGKYRSPFDGKVHKGISFTDYSIWDTFRATHPLFVLLKPDFAGDLITGLLHAYDEGGWLPKWPNPGYTNCMMGTHSDAIIADAYVKGVRNFDVEKAKKAVLKNAYEKGNHIAWGRLGIMDYERLGYVPVDKYGESVARTMEFAYDDYCLSRFFAEKGEPDLSDKLGKRSKNFRNVLDKETKMVRARKADGSWSNPEDYDISVWSGFNPKGVYNYKKNYTLFVPHDVPELIRFLGGTDSLAVFMDELFDKDIYYVGDEFVMHAPYMYNLCKRPWMTQKRIYDIVNKYYLPTPSGLPGNDDCGQLSSWYIFSAMGFYPMCPASIEYQLGVPCLPGFVLHLPQNRTFTIKTKNFGKGNCYVRAVYLNGKPHRSSVITHSDIINGGEILFELTDKPAYNWFQ | failed
MERTLSDSQIRYIKARERRNLRGAQAFICLFLSLFVLILLQGVWLLISPRLACALLVPWAIFLWWWVFHRLKGQQSEVAARTQWLQGQFSATWVSSHRNGHFSYSFGDYPIAACCRLNNLFNEKRLDLHTRYRVEAALLTCSQTASHSYYLFGDTLVPVTRAPETDEQPGS | failed
MIVASSAAYRLHQGDALRLLCGIDSASVDAVITDPPYCSGAMRMADRFKPTKRKYINNGTKHVAPDFDCDFRDHRGFLAWSSQWLSECRRVTRPGGVLLVFTDWRMLPTLTDAVQSAGWAWQGIVVWDKTPACRPQLGRFRSQAEFIVWASCGLMNPKAHPVTPVGVFATGTAPREKRHQVGKPLALMEHLVKIVPPASTVLDPFAGSGTTGVAALRAGHRFIGMELSPWYCDVTKQRLADST | failed
MTNITPEAKNTNRHSVLLVEKEGRNLARKYHQVLVEELTIIKQGYKTFSSKNIAIPSGFWYHYDTSLTDSYENAKSECFYIPNDNQNYPLQEMRRDCKEYERVEKQVVFKNNKNNELNELPKYLNNAKKY | failed
MFRRPRLRALSALVLAALTLPAVAQQVLIRGATVHTATSQGTLRNTDVLVQGGVIRAIGTGLAVPTHGRVVEAKGRPLTPALFGGITEIGIEEVSGEAATVDSGVKLTEQPMRPEFDVTLAYNPDSVLIPVARVEGIGFTALGATTSGAFIAGQGGIVRLDGGPDPVGPHALFVRLGAAASDLTGSSRAAQWMLLDQLVAEARGRVPADSPHALLTPVGRSVLANYLAGRGRIVVQVERAADIRQLLRWAQREKVRIAIAGGTEAWKLAPQLAQAKVPVLVDALADLPSTFDQIGATLENAARLRAAGVEVSFTQSGDASHNARKLRQLAGNAVANGLPWESGLAGLTRVPAEIFGVGDRIGSIAVGKQADLVLWDGDPLDVAHYAEQVWMGGRDMPMRSRQTDLRDRYLQQAGPLPRAYQR | failed
MEVIESKWYKKDGASSASIDDVEKLLNTTLPKQYKSFLLWSNGGEGKLGDNYIYIWAIEDVIAYNHDYGIQKYLQKEYWAFGMDGDIGYILHLSDNSIYRVDLGDLDITSIKYIAPSFDDFLGKAIYLNFNKLQNVANNNLTT | not failed
MEILYIKGDATAPIGSGVKVITHICNDIGGWGKGFVLALSKKWKMPEEAYRQWYKSQEEFTLGAVQFVNVENKLYVANMIGQHGIYKDSKGLPPIRYDAVRQCLKEVALFTIAHKASVHMPRIGCGLAGGKWELMEQIIKEELITKEIAVTVYDL | not failed
MDGDFRTSFVREPAGLRPYPALVLNADYRPLSYYPLSLWPWQEAIKAAFLDRVSIVAEYDQVVRSQRAALRIPSVVVLKEFVSPQKRVAFTRFNLFLRDEFRCQYCGAKGDLTFDHVVPRARGGVTSWQNVVAACSPCNLHKGSKTLKQAGMRLARIPREPTPAEMQRHGQRFPPNHLHDSWLDYLYWDAELEALEHHHHHH | failed
MFVHLSVELMQHLSAAALAFTVVTYVVLDGTDLGVGMLFAANRSDADRHLMAYSILPVWDGNETWLVLGGGSLLAMFPSAYAIFLNATYVPLVVMLLALICRGVALEYRDQLGTDRRRRVLDVVFMVASLLATFCQGVVAGTYLAGVAHRAGQYAGNGREWLQPFPLFCGVALVVGYLLLGACWLVWRSEGQLQQRARHQARVLGIVLGALLTLGVVWLARLTPIYAQRLGDAHISVPLGTSVLGLMVAMYLLMRSRHAFLPLFAVLGVVVATYAGVLAIVYPMVLPPDITLAQAASPPASQGVMLLAFAVLVPCTLAYSSYGFYVFRGKVKPRGHAAE | failed
TISQRPYRDRVIHLLALKAYKKPELLARLQKDGVNQKDKNSLGAILQQVANLNSKDLSYTLKDYVFKELQRDWPGYSEIDRRSLESVLSRKLN | not failed
MNQRDVILDCEKKLLTAIQNNDVESLEVLLHDDLLFIIPSGETVTKETDIAAYSSGKIALRAVVPSDYIIRIIHDTVVVSVNIEIKGEYMEHTLDNTFRYLRVWKLFDGNWKVIAGSCTAIG | not failed
VAPLGLSVPSDVELPPTAKMHAIIERTASFVCRQGAQFEIMLKAKQARNSQFDFLRFDHYLNPYYKFIQKAMKEGRYTVLAENKSDEKKKSGVS | not failed
HQQQRSVMTEEYKVPDGMVGFIIGRGGEQISRIQQESGCKIQIAPDSGGLPERSCMLTGTPESVQSAKRLLDQIVEKGR | not failed
MIEVVCNDRLGKKVRVKCNTDDTIGDLKKLIAAQTGTRWNKIVLKKWYTIFKDHVSLGDYEIHDGMNLELYYQ | not failed
MVSVNSSHCFYNDSFKYTLYGCMFSMVFVLGLISNCVAIYIFICVLKVRNETTTYMINLAMSDLLFVFTLPFRIFYFTTRNWPFGDLLCKISVMLFYTNMYGSILFLTCISVDRFLAIVYPFKSKTLRTKRNAKIVCTGVWLTVIGGSAPAVFVQSTHSQGNNASEACFENFPEATWKTYLSRIVIFIEIVGFFIPLILNVTCSSMVLKTLTKPVTLSRSKINKTKVLKMIFVHLIIFCFCFVPYNINLILYSLVRTQTFVNCSVVAAVRTMYPITLCIAVSNCCFDPIVYYFTSDTIQNSIKMKNWSVRRSDFRFSEVHGAENFIQHNLQTLKSKIFDNESAA | failed
MSRYRLREHAWCLRQLNVSNKSFLKRSFLVGLGYTPPIRYFIDIGPLPNWTRKEVNELILGRTRVRSPILKLLIELFVHRICSDPRFQVKSSSVNA | failed
MSLKIKVYLYTRVSTSIQIEGYSLEAQKSRMKAFAIYNDYEIVGEYEDAGKSGKSIEGRIQFNRMMEDIKSGKDGVSFVLVFKLSRFARNAADVLSTLQIMQDYGVNLICVEDGIDSSKDAGKLMISVLSAVAEIERENIRIQTMEGCIQKAREGKWNGEGHHHHHH | not failed
